Experimental findings from patent US20260209362A1 (VIB VZW, published 2026) are described below.

Assay [1] concerns the target T1, human IL-12Rβ2 expressed on cells (human, UniProt Q99665 24-862).
T1 construct: HEK293T cells transiently transfected with a human IL-12Rβ2 plasmid (Genscript OHu21785); also called hIL-12RB2
T1 sequence: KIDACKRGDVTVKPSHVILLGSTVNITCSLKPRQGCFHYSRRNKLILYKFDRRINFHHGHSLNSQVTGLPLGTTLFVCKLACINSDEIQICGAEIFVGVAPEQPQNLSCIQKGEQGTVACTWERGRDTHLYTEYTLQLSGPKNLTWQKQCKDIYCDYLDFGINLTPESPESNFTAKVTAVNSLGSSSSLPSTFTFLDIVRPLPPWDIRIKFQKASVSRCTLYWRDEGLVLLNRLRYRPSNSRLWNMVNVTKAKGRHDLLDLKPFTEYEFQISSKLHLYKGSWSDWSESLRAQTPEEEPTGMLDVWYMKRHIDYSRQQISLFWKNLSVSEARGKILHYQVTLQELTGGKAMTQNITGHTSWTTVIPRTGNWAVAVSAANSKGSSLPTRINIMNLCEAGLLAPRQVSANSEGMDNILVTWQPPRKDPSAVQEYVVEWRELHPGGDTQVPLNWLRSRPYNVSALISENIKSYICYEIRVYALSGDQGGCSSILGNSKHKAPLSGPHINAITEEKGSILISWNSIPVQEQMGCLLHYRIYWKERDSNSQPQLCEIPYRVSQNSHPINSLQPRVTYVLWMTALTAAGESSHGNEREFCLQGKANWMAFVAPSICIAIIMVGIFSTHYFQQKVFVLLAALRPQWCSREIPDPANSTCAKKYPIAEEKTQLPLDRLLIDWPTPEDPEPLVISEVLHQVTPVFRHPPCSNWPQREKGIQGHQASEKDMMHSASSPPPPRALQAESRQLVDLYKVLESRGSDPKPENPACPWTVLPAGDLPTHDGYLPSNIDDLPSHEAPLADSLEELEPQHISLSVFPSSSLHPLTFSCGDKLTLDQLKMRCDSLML
As to the kind of experiment: flow cytometry, P.E. VHH on HEK293T cells transiently expressing hIL-12RB2.

Assay [2] concerns the target T2, biotinylated recombinant mouse IL-12Rβ2 (produced in-house) (mouse, UniProt P97378 24-637, random biotinylated).
T2 construct: also called mIL-12RB2; mIL12RB2
T2 sequence: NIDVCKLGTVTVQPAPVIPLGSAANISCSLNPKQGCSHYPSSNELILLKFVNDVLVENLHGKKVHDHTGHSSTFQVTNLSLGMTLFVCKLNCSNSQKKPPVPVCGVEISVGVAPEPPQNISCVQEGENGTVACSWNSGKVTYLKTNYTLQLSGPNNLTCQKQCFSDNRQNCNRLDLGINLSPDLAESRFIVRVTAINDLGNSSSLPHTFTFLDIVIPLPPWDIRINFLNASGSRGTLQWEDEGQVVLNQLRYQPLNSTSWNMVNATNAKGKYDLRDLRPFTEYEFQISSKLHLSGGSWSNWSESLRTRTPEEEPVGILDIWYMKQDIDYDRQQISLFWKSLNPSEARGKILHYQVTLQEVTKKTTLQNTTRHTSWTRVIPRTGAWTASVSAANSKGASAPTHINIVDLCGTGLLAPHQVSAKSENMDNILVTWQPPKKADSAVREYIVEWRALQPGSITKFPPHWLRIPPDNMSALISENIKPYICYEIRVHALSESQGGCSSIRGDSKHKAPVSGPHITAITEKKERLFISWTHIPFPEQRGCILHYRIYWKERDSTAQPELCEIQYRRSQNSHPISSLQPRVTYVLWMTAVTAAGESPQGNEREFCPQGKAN
The assay is described as follows: BLI (Octet), P.E. VHH on immobilised biotinylated mIL-12RB2, 1:1 model. (In general: In BLI a coated tip is dipped into the sample, and binding shifts an interference pattern.)

B1: anti-IL-12Rβ2 VHH clone 3CRHM99 (VHH, not shown: small tags and cut ends)
VHH: QVQLQESGGGLVQPGGSLRLSCAASGISSSRLHVGWFRQSPGKEREFVAAISLSGGTQAYTDSVKGRFTISGDNVKNTAYLQMNSLRPEDTAVYYCAARERFIWTWSDLTYDYWGQGTQVTVSS
notes: tested as periplasmic extract; also called 21062
The molecule B1 yielded a dMFI in assay [1] of 458. Also, the off-rate constant (koff) (as a rule, the rate constant with which the complex falls apart) in assay [2] came to 0.00671 s⁻¹.

B2: anti-IL-12Rβ2 VHH clone 3CRHM73 (VHH, not shown: small tags and cut ends)
VHH: QVQLQESGGGLVQAGGSLSLSCAASGSAFRLNFMGWYRQAPGKQRELVAAINSGGTEIYHDSVKGRFTISRDNADSTVWLQMNSLKPDDTAVYYCAADRGISWSKLAGGMDYWGKGTQVTVSS
notes: tested as periplasmic extract; also called 21060
For the molecule B2, the dMFI in assay [1] worked out at 297. Further, the koff in assay [2] stood at 0.00605 s⁻¹.

B3: anti-IL-12Rβ2 VHH clone 3CRHM14 (VHH, not shown: small tags and cut ends)
VHH: QVQLQESGGGLVQAGGSLRLSCAASGRTFSNYAMAWFRQAPGTEREFVAGLSGSGGDTEFYDDSVKGRFAISRDSAKNTVWLQMNSLKPEDTAVYYCAAATHVVVHYGLVRRRGTYDYWGQGTQVTVSS
notes: tested as periplasmic extract
Regarding B3, the dMFI in assay [1] stood at 589. Also, the off-rate (koff) in assay [2] was 0.00483 s⁻¹.

B4: anti-IL-12Rβ2 VHH clone 3CAHM11 (VHH, not shown: small tags and cut ends)
VHH: QVQLQESGGGLVQAGGSLRLSCAASGRTFNNYAMAWFRQAPGKEREFIAAITRSDTTLYIDSVKGRFTISRDNAKNTVALQMNSLKPEDTAVYYCAAGMPYSYSDYPRDSKYDYWGRGTQVTVSS
notes: tested as periplasmic extract
Consider B4, for which the dMFI in assay [1] worked out at 684. The dissociation rate constant (koff) in assay [2] stood at 0.00462 s⁻¹.
